# Measured values published in US20260356955 (published 2026).
# Residue numbers refer to the chain shown, from its start. Read-outs that look alike come from different tables or passages of the source.
# B1: Hu22F10G3-2.3-NA (antibody, V domains shown)
# VH: QVQLQESGPGLVKPSQTLSLTCTVSGYSLTSDFAWNWIRQHPGKGLEWMGDIRYSGSTDYNPSLKGRVTISRDTSKNQFSLKLSSVTAADTAVYYCARGGYYGYDEGYPMDYWGQGTLVTVSS
# VL: DIVMTQSPDSLAVSLGERATISCRASESVDVYGNAFMHWYQQKPGQPPKLLIYLAFNLKSGVPDRFSGSGSGTDFTLTISSLQAEDVAVYYCQQNNEDPFTFGQGTKLEIK
# B2: Hu22F10G3-2.3-QS (antibody, V domains shown)
# VH: B1 VH
# VL: B1 VL with N34Q, A35S
# B3: Hu22F10G3-2.3 (antibody, V domains shown)
# VH: B1 VH
# VL: B1 VL with A35S
# B4: Hu50A8F2-04 (antibody, V domains shown)
# VH: QVQLVQSGAEVKKPGASVKVSCKASGYTFIDYYINWVRQAPGQGLEWMGWIFPGSGHTKYNENFKGRVTMTRDTSTSTVYMELSSLRSEDTAVYYCARGDRSALGYFDYWGQGTTVTVSS
# VL: DIQLTQSPSSLSASVGDRVTITCTASSSVSSTYLHWYQQKPGKSPKLLIYSTSNLASGVPSRFSGSGSGTDYTLTISSLQPEDAATYYCHQYHRSPLTFGQGTKLEIK
# B5: Hu47A5H2-11 (antibody, V domains shown)
# VH: QVQLVQSGAEVKKPGASVKVSCKASGYSFTGYWMHWVRQAPGQGLEWMGMIHPSDSETRLNQKFKDRVTMTVDKSTSTVYMELSSLRSEDTAVYYCASEGLRRGSFAYWGQGTLVTVSS
# VL: DIVLTQSPDSLAVSLGERATINCRASESVDNYGMTFMSWFQQKPGQPPKLLIYAASNQGSGVPDRFSGSGSGTDFTLTISSLQAEDVAVYYCQQSKEVPYTFGQGTKLEIK
# Columns and labels:
# human KLRB1 ECD [1] = target: human KLRB1 ECD (human); experiment: SPR
# Sequence of human KLRB1 ECD (human) (chain, as listed by the source): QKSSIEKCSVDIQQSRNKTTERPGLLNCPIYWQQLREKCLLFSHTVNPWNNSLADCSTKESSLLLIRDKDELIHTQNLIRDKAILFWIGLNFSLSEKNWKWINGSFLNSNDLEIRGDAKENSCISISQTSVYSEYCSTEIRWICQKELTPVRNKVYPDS
# human KLRB1 ECD [2] = target: human KLRB1 ECD (human); experiment: SPR; remark: listed apart in the source
# human KLRB1 ECD [3] = target: human KLRB1 ECD (human); experiment: SPR; remark: listed apart in the source
# human KLRB1 on CHO-K1 [4] = target: human KLRB1 on CHO-K1 (human); experiment: FACS
# Sequence of human KLRB1 on CHO-K1 (human) (chain, as listed by the source): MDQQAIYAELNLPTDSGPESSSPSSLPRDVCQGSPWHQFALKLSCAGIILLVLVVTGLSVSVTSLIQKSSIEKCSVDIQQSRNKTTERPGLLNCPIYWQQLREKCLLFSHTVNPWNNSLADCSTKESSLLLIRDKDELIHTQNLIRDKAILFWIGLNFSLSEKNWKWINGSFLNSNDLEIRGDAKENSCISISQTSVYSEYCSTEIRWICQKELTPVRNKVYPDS
# human KLRB1 ECD [5] = target: human KLRB1 ECD (human); experiment: ELISA
# human KLRB1 on CHO-K1 [6] = target: human KLRB1 on CHO-K1 (human); experiment: FACS; remark: listed apart in the source
# [7] = target: T1, cynomolgus KLRB1 on CHO-K1 (cynomolgus); experiment: FACS
# T1 chain: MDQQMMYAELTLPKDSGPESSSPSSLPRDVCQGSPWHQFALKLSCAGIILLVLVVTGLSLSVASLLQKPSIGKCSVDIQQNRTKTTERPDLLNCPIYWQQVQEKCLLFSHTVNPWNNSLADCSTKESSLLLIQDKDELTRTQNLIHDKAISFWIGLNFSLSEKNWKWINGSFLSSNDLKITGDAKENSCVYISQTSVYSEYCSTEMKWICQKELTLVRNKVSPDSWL
# cynomolgus KLRB1 ECD [8] = target: T2, cynomolgus KLRB1 ECD (cynomolgus); experiment: ELISA
# T2 chain: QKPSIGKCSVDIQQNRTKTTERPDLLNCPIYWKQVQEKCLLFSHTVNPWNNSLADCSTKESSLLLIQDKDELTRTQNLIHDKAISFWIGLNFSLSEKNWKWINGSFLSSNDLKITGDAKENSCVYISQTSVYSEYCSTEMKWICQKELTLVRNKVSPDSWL
# human KLRB1 ECD [9] = target: human KLRB1 ECD (human); experiment: SPR; remark: listed apart in the source
# human KLRB1 ECD [10] = target: human KLRB1 ECD (human); experiment: ELISA; remark: listed apart in the source
# human KLRB1 ECD [11] = target: human KLRB1 ECD (human); experiment: ELISA; remark: listed apart in the source
# human KLRB1 on CHO-K1 [12] = target: human KLRB1 on CHO-K1 (human); experiment: competition, CLEC2D, FACS
# cynomolgus KLRB1 ECD [13] = target: T2, cynomolgus KLRB1 ECD; experiment: ELISA
# cynomolgus KLRB1 ECD [14] = target: T2, cynomolgus KLRB1 ECD; experiment: SPR
# human KLRB1 on CHO-K1 [15] = target: human KLRB1 on CHO-K1 (human); experiment: competition, CLEC2D, FACS; remark: listed apart in the source
# human KLRB1 on CHO-K1 [16] = target: human KLRB1 on CHO-K1 (human); experiment: FACS; remark: listed apart in the source
# [17] = target: T1, cynomolgus KLRB1 on CHO-K1; experiment: FACS
# human KLRB1 ECD [18] = target: human KLRB1 ECD (human); experiment: SPR; remark: listed apart in the source
# cynomolgus KLRB1 ECD [19] = target: T2, cynomolgus KLRB1 ECD; experiment: ELISA
# [20] = target: T1, cynomolgus KLRB1 on CHO-K1; experiment: FACS
binder,measurement,setting,value
B1,Kd,human KLRB1 ECD [1],0.14 nM
B2,Kd,human KLRB1 ECD [1],0.653 nM
B3,Kd,human KLRB1 ECD [1],0.0688 nM
same,Kd,human KLRB1 ECD [2],0.0966 nM
same,Kd,human KLRB1 ECD [3],0.103 nM
B4,EC50,human KLRB1 on CHO-K1 [4],5.45 nM
same,EC50,human KLRB1 ECD [5],0.033 nM
same,EC50,human KLRB1 on CHO-K1 [6],6.81 nM
same,binding result,[7],no binding
same,binding result,cynomolgus KLRB1 ECD [8],no binding
same,Kd,human KLRB1 ECD [9],0.693 nM
same,EC50,human KLRB1 ECD [10],0.0201 nM
B5,EC50,human KLRB1 ECD [11],0.0238 nM
same,IC50,human KLRB1 on CHO-K1 [12],3.61 nM
same,EC50,cynomolgus KLRB1 ECD [13],0.01 nM
same,Kd,cynomolgus KLRB1 ECD [14],1.94 nM
same,IC50,human KLRB1 on CHO-K1 [15],1.97 nM
same,EC50,human KLRB1 on CHO-K1 [16],1.6 nM
same,EC50,human KLRB1 ECD [5],0.016 nM
same,EC50,human KLRB1 on CHO-K1 [6],3.01 nM
same,EC50,[17],14.9 nM
same,Kd,human KLRB1 ECD [18],0.639 nM
same,EC50,cynomolgus KLRB1 ECD [19],0.024 nM
same,EC50,[20],~1.77 nM
